Experimental findings from PMC9273970, “Mambalgin-2 Inhibits Lung Adenocarcinoma Growth and Migration by Selective Interaction With ASIC1/α-ENaC/γ-ENaC Heterotrimer” (Frontiers in Oncology, 2022) are described below.

The target of test [1] is ASIC1a subunit (acid-sensing ion channel 1a) (human (endogenous in A549)).
In test [2] the target is human heteromeric ASIC1a/α-ENAC/γ-ENAC channel (human, UniProt P78348 1-528; P37088 1-669; P51170 1-649). In words: cell-based or functional assay.
human heteromeric ASIC1a/α-ENAC/γ-ENAC channel, sequence (P78348 whole entry, chain 1 of 3): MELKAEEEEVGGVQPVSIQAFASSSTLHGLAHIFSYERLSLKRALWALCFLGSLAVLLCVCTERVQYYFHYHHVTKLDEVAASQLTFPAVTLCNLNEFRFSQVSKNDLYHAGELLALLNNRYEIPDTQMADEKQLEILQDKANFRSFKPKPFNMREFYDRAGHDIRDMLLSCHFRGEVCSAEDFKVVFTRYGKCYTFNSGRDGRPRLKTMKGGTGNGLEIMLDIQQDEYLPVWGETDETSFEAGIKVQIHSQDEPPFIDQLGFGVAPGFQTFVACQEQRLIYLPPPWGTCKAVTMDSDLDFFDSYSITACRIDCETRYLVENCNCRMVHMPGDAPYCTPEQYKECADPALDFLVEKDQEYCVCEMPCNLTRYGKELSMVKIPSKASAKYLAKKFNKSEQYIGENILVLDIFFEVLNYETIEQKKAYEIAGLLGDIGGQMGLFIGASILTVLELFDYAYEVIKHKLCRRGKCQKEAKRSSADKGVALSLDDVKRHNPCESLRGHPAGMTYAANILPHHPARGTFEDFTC
human heteromeric ASIC1a/α-ENAC/γ-ENAC channel, sequence (P37088 whole entry, chain 2 of 3): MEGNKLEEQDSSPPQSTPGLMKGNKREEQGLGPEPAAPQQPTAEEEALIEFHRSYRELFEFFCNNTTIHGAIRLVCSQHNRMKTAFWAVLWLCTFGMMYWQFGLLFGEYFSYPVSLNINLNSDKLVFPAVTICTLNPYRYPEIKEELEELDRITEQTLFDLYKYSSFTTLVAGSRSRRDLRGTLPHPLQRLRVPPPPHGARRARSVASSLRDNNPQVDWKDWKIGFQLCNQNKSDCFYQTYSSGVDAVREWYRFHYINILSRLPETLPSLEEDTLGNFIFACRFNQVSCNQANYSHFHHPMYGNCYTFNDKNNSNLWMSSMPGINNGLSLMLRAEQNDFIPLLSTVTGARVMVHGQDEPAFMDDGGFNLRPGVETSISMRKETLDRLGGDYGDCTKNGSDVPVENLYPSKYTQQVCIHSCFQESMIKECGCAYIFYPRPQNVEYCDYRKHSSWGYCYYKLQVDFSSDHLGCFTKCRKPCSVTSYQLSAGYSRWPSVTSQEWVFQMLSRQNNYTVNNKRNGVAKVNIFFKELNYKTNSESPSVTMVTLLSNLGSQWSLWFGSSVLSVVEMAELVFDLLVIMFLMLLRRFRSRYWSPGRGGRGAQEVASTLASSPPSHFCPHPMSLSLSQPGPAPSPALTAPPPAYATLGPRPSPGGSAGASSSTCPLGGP
human heteromeric ASIC1a/α-ENAC/γ-ENAC channel, sequence (P51170 whole entry, chain 3 of 3): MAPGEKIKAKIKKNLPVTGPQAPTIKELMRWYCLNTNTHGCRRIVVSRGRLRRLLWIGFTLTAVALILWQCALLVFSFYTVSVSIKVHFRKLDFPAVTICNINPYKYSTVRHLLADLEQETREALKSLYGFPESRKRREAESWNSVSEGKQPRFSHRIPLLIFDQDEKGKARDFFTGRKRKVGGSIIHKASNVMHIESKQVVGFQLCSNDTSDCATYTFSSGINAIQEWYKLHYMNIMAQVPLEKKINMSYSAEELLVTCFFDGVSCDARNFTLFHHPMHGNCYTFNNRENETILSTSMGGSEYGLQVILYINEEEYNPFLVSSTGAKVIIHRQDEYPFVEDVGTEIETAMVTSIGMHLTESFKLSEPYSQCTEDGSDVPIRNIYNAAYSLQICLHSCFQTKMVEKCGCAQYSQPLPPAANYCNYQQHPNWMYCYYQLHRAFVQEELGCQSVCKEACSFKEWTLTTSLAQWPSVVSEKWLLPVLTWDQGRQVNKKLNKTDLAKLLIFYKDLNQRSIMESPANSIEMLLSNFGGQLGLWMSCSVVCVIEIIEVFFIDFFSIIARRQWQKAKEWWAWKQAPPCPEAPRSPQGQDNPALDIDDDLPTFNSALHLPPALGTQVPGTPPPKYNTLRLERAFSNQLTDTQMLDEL

ASIC1a subunit (acid-sensing ion channel 1a) (human (endogenous in A549)), sequence (P78348 whole entry): as the sequence (P78348 whole entry, chain 1 of 3) above

B1: recombinant mambalgin-2 from Dendroaspis polylepis (natural protein)
chain: LKCFQHGKVVTCHRDMKFCYHNTGMPFRNLKLILQGCSSSCSETENNKCCSTDRCNK
As to B1, the inhibition of currents evoked by a pH drop from 7.4 to 5.0 in X. laevis oocytes expressing homomeric hASIC1a (two-electrode voltage clamp, mambalgin-2 0–10 μM, 15 s pre-incubation), IC50 in test [1] came to 0.59 μM. Further, the “inhibition of currents evoked by a pH drop from 7.4 to 5.0 in X. laevis oocytes expressing hASIC1a/α-ENAC/γ-ENAC (two-electrode voltage clamp, mambalgin-2 0–10 μM, 15 s pre-incubation), IC50” value in test [2] amounted to 79 nM.
